# Results published in paper PMC7969030.
# T1: Kucore (Bacillus subtilis, UniProt O34859 1-253)
# T1 sequence: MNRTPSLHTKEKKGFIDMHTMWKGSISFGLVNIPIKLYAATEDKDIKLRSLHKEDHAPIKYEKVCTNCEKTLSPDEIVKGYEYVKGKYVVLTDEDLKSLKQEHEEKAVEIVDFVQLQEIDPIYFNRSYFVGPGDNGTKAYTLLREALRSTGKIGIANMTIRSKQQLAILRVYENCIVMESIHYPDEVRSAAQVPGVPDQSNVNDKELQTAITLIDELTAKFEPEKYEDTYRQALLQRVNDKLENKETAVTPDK
# T2: Kuwt (Bacillus subtilis, UniProt O34859 1-311)
# T2 sequence: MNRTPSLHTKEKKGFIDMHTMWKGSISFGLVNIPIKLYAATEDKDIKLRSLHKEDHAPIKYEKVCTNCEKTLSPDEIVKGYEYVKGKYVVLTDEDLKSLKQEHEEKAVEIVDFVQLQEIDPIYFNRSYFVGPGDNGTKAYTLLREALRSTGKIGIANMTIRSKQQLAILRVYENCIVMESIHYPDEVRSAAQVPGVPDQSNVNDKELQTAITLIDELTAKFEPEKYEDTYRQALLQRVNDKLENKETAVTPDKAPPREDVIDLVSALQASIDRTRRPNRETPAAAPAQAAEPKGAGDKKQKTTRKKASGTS
# T3: Kuwt;LigD (Bacillus subtilis;Bacillus subtilis, UniProt O34859;O34398 1-311;1-611, |)
# T3 sequence 1: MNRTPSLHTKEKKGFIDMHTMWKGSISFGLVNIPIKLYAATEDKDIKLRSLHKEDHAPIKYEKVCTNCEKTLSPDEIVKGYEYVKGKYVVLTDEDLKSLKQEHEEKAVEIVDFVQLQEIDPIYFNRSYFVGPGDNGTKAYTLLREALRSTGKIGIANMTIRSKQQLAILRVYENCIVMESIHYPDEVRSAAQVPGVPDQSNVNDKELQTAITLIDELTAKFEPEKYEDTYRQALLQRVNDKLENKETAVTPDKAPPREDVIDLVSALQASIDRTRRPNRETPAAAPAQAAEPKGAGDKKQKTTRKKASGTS
# T3 sequence 2: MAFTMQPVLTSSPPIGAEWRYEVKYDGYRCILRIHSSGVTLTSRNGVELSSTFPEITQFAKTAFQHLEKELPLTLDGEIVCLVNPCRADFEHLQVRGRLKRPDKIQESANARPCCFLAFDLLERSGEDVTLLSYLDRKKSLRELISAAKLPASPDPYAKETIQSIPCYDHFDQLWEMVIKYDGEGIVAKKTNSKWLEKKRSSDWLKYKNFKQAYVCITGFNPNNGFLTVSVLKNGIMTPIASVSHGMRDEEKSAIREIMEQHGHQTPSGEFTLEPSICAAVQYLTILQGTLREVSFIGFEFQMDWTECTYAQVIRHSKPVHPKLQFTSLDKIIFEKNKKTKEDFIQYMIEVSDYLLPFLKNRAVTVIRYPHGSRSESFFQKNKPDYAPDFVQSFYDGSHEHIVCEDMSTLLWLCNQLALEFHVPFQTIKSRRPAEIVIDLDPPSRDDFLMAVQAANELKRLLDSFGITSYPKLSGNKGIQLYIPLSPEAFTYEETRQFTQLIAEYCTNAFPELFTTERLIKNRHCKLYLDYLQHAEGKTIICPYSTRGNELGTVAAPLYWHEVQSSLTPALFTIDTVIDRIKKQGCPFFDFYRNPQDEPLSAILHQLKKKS
# Experiments:
# [1] = molecular target: T1, Kucore; test: SPR
# [2] = molecular target: T2, Kuwt; test: SPR
# [3] = molecular target: T1, Kucore; test: EMSA
# [4] = molecular target: T2, Kuwt; test: EMSA
# [5] = molecular target: T3, Kuwt;LigD; test: EMSA
binder,measurement,setting,value
"50 bp blunt DNA (SPR) (dsDNA, 5' biotin on one strand) DNA 1: CCTCTAGACCTGTACTACTCGAGAGATCGATCGACAGACGATGACTTAGC DNA 2: GCTAAGTCATCGTCTGTCGATCGATCTCTCGAGTAGTACAGGTCTAGAGG",Kd,[1],9.3 nM
same,Kd,[2],6.7 nM
"50 bp DNA with 4 nt overhang (dsDNA, 5' 6-FAM on one strand) DNA 1: CCTCTAGACCTGTACTACTCGAGAGATCGATCGACAGACGATGACTTAGC DNA 2: CTGAGCTAAGTCATCGTCTGTCGATCGATCTCTCGAGTAGTACAGGTCTAGAGG",binding result,[3],binds
same,binding result,[4],binds
"50 bp blunt DNA (EMSA, photobleaching) (dsDNA, 5' 6-FAM on one strand (EMSA)) DNA 1: CCTCTAGACCTGTACTACTCGAGAGATCGATCGACAGACGATGACTTAGC DNA 2: GCTAAGTCATCGTCTGTCGATCGATCTCTCGAGTAGTACAGGTCTAGAGG",binding result,[5],binds
